Measurements published in patent publication US20220017622A1 (Pfizer, published 2022).

T1: human B7-H4 extracellular domain (human, UniProt Q7Z7D3 29-258)
T1 construct: For SPR it says only human B7-H4 ECD; also called Hu B7-H4 ECD; huB7-H4 ECD
T1 sequence: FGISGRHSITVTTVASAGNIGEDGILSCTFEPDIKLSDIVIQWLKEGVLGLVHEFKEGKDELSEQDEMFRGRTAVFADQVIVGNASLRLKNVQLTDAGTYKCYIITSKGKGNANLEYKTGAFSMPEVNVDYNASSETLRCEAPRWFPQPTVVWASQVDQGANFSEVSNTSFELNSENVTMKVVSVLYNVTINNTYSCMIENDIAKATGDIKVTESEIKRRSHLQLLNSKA

T2: human B7-H4 on cells (human, UniProt Q7Z7D3 25-282)
T2 sequence (looked up): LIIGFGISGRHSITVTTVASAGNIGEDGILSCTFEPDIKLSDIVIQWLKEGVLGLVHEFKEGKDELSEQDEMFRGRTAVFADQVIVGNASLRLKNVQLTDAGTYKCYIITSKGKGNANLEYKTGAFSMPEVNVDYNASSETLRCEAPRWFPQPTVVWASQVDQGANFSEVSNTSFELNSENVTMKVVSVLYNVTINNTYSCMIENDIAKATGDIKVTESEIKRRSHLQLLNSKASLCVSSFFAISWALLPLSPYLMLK


Key:
[1] = target: T1, human B7-H4 extracellular domain; test: SPR Biacore 8K 25 C; mAb captured on anti-human Fc, huB7-H4 ECD analyte, 1:1 fit;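 further: antibodies tested as IgG1, running buffer HBS-EP+ at pH 7.4, rate constants and affinity from a 1:1 Langmuir model fit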
human B7-H4 on cells = target: T2, human B7-H4 on cells; test: cell-based or functional assay

Kd [1] [nM] | koff [1] [s⁻¹] | kon [1] [M⁻¹ s⁻¹] | Binder | T cell mediated tumor cell killing EC50, HCC1954-Luc (human B7-H4 on cells) [nM]
0.83 | 0.000619 | 745000 | B7-H4 antibody 0048 (antibody, human IgG1, kappa, V domains shown, also called 11F12) VH: EVQLLESGGGLVQPGGSLRLSCAASGFTFSSYAMKWVRQAPGKGLEWVSTTSGSGGTTYYADSVKGRFTISRDNSKNTLYLQMNSLRAEDTAVYYCAKAGWAAAFDYWGQGTLVTVSS VL: DIQLTQFPSTLSASVGDRITITCRASQSISDWLAWYQQKPGKAPKLLIYKASSLESGVPSRFSGSGSGTEFTLTISSLQPDDFATYYCQQCNSYWTFGQGTKVEIKR | 
1.9 | 0.000725 | 382000 | B7-H4 antibody 0055 (antibody, human IgG1, kappa, V domains shown, also called 32F3) VH: QVQLQESGPGLVKPSETLSLTCTVSGGSISSSSYYWGWIRQPPGKGLEWIGTIYFSGNTYYNPSLKSRVTISVDTSKSQLSLKLNSVTAADTAVYYCARLRVTMVRGVIIGVFDYWGQGTLVTVSS VL: not shown | 
1.35 | 0.00075 | 558000 | B7-H4 antibody 0060 (antibody, human IgG1, kappa, V domains shown, also called 42E2) VH: QVQLQESGPGLVKPSETLSLTCTVSTGSISSSSYYWGWIRQPPGKGLEWIGTIYFSGSTYYNPSLKSRVTISVDTSKNQFSLKLTSVTAADTAVYYCARLRVTMVRGVIIGVFDFWGQGTLVTVSS VL: not shown | 
0.74 | 0.000321 | 434000 | B7-H4 antibody 0053 (antibody, human IgG1, kappa, V domains shown, also called 29G6) VH: QVQLQQWGAGLLKPSETLSLTCAVYGGPFSGYFWSWIRQPPGKGLEWIGEINHSGNTNYNPSLKSRVTISVDTSKNQFSLKLSSVTAADTAVYYCARAGGDYGFYYYYGMDVWGQGTTVTVSS VL: DIQLTQSPSTLSASVGDRVTITCRASQSISSWLAWYQQKPGKAPELLVYKASRLESGVPSRFSGSGSGTEFTLTISSLQPDDFATYYCQQYNSYFGGGTKVEIKR | 
0.84 | 0.000572 | 678000 | B7-H4 antibody 0061 (antibody, human IgG1, kappa, V domains shown, also called 46E10) VH: QVQLQQWGAGLLKPSETLSLTCAVYGGSFSGYFWSWIRQPPGKGLEWIGEFNHSGGTNSNPSLKSRVTMSVDTSKNQFSLKLSSVTAADTAVYFCARAGGDYGFYYYYGLDVWGQGTTVTVSS VL: DIQLTQSPSTLSASVGDRVTITCRASQSISSWLAWYQQKPGKAPELLVYKASRLESGVPSRFSGSGSGTEFTLTISSLQPDDFATYYCQQYNSYFGGGTKVEIKR | 
7.92 | 0.000508 | 64100 | B7-H4 antibody 0057 (antibody, human IgG1, kappa, V domains shown, also called 34A3) VH: EVQLLESGGGLVQPGGSLRLSCAASGFTFSSYAMSWVRQAPGKGLEWVSAISGRGGSTYYTDSVKGRFTISRDNSRNTLYLQMNILRAEDTAVYYCARDLQWFGESTLFDYWGQGTLVTVSS VL: DIQLTQSPSTLSASVGDRVTITCRASQSISAWLAWFQQKPGKAPKLLIYKASSLESGVPSRFSGSGSGTEFTLTISSLQPDDFATYYCQQYNSYSRSFGQGTKLEIKR | 
0.57 | 0.000464 | 814000 | B7-H4 antibody 0051 (antibody, human IgG1, kappa, V domains shown, also called 27C12) VH: EVQLLESGGGLVQPGGSLRLSCAASGFTFSSYAMSWVRQAPGKGLEWVSSISGNGGSTYYADSVKGRFTISRDNSKNTLSLQMNSLRAEDTAVYYCAKVGWRTGDYWGQGTLVTVSS VL: DIQLTQSPSTLSASVGDRVTITCRASQSISSWLAWYQQKAGKAPKLLIYKASDLESGVPSRFSGSGSGIEFTLTISSLQPDDFATYYCQQYNSYSWTFGQGTKVEIKR | 
1.85 | 0.000414 | 225000 | B7-H4 antibody 0049 (antibody, human IgG1, kappa, V domains shown, also called 13F4) VH: EVQLLESGGGLVQPGGSLRLSCAASGFTFSSYAMSWVRQAPGKGLEWVSAISGSGGSTYYADSVKGRFTISRDNSKNTLFLHMNSLRAEDTAVYYCARDIQWFGESVFDYWGQGTLVTVSS VL: DIQMTQSPSTLSASVGDRVTITCRASQSISSWLAWYQQKPGKAPKLLIYKASSLESGVPSRFSGNGSGTEFTLTISSLQPDDLATYYCQYYNSYSRTFGQGTKVEIKR | 
0.62 | 0.000353 | 574000 | B7-H4 antibody 0056 (antibody, human IgG1, kappa, V domains shown, also called 33G4) VH: EVQLLESGGGLVQPGGSLRLSCAASGFTFSTYAMNWVRQAPGKGLAWVSAISGSGGSTYYADSVKGRFTISRDDSKNTLYLQMNSLRAEDTAVYYCAKVDVVARYYGMDVWGQGTTVTVSS VL: DIQMTQSPSTLSASVGDRVTITCRASQSISGWLAWYQQKPGKAPKLLIYEASSLESGVPSRFSGSGSGTEFTLTISSLQPDDFATYYCQQYKSYSWTFGQGTKVEIKR | 
0.68 | 0.000389 | 568000 | B7-H4 antibody 0059 (antibody, human IgG1, kappa, V domains shown, also called 47A1) VH: EVQLLESGGGLVQPGGSLRLSCAASGFTFSSYALSWVRQAPGKGLEWVSTINVGGVDTNYAGSVKGRFTISRDNPKNTLCLQMNSLRAEDTAVYHCAKARITMVRGVIIPLFDYWGQGTLVTVAS VL: not shown | 
7.83 | 0.0011 | 140000 | B7-H4 antibody 0052 (antibody, human IgG1, kappa, V domains shown, also called 28D10) VH: QVQLQQWGAGLLKPSETLSLTCAVYGGSFSGYYWNWIRQPPGKGLEWIGEINHSGSTKYNPSLKSRVTISGDTSKNQFSLKLNSVTAADTAVYYCVRGLYNWNVDSWGQGTLVTVSS VL: DIQMTQSPSSLSASVGDRVTITCRASQGIRNDLGWYQQKPGKAPKRLIYVASSLQSGVPSRFSGSGSGTEFTLTISSLQPEDFATYYCLQHNSYPYTFGQGTKLEIKR | 
 |  |  | B7-H4xCD3 bispecific antibody 0980 (bispecific antibody, IgG2) heavy 1: EVQLVESGGGLVQPGGSLRLSCAASGGSFSGYYWNWIRQPPGKGLEWIGEIDHQGSTKYNPSLKSRVTISVDTAKNSLYLQMNSLRAEDTAVYYCARGLYNWNVDHWGQGTLVTVSSASTKGPSVFPLAPCSRSTSESTAALGCLVKDYFPEPVTVSWNSGALTSGVHTFPAVLQSSGLYSLSSVVTVPSSNFGTQTYTCNVDHKPSNTKVDKTVERKCEVECPECPAPPVAGPSVFLFPPKPKDTLMISRTPEVTCVVVAVSHEDPEVQFNWYVDGVEVHNAKTKPREEQFNSTFRVVSVLTVVHQDWLNGKEYKCKVSNKGLPSSIEKTISKTKGQPREPQVYTLPPSREEMTKNQVSLTCEVKGFYPSDIAVEWESNGQPENNYKTTPPMLDSDGSFFLYSKLTVDKSRWQQGNVFSCSVMHEALHNHYTQKSLSLSPG light 1: DIQMTQSPSSLSASVGDRVTITCRASQGIRNDLGWYQQKPGKAPKRLIYAASSLQSGVPSRFSGSGSGTDFTLTISSLQPEDFATYYCLQHSSYPRTFGGGTKVEIKRTVAAPSVFIFPPSDEQLKSGTASVVCLLNNFYPREAKVQWKVDNALQSGNSQESVTEQDSKDSTYSLSSTLTLSKADYEKHKVYACEVTHQGLSSPVTKSFNRGEC heavy 2: EVQLVESGGGLVQPGGSLRLSCAASGFTFSDYYMTWVRQAPGKGLEWVAFIRNQARGYTSDHNPSVKGRFTISRDNAKNSLYLQMNSLRAEDTAVYYCARDRPSYYVLDYWGQGTTVTVSSASTKGPSVFPLAPCSRSTSESTAALGCLVKDYFPEPVTVSWNSGALTSGVHTFPAVLQSSGLYSLSSVVTVPSSNFGTQTYTCNVDHKPSNTKVDKTVERKCRVRCPRCPAPPVAGPSVFLFPPKPKDTLMISRTPEVTCVVVAVSHEDPEVQFNWYVDGVEVHNAKTKPREEQFNSTFRVVSVLTVVHQDWLNGKEYKCKVSNKGLPSSIEKTISKTKGQPREPQVYTLPPSREEMTKNQVSLTCLVKGFYPSDIAVEWESNGQPENNYKTTPPMLDSDGSFFLYSRLTVDKSRWQQGNVFSCSVMHEALHNHYTQKSLSLSPGK light 2: DIQMTQSPSSLSASVGDRVTITCTSSQSLFNVRSQKNYLAWYQQKPGKAPKLLIYWASTRESGVPSRFSGSGSGTDFTLTISSLQPEDFATYYCKQSYDLFTFGGGTKVEIKRTVAAPSVFIFPPSDEQLKSGTASVVCLLNNFYPREAKVQWKVDNALQSGNSQESVTEQDSKDSTYSLSSTLTLSKADYEKHKVYACEVTHQGLSSPVTKSFNRGEC | 390
 |  |  | B7-H4xCD3 bispecific antibody 0982 (bispecific antibody, IgG2) heavy 1: EVQLVESGGGLVQPGGSLRLSCAVSGGSFSGYYWNWIRQPPGKGLEWIGEIDHQGSTKYNPSLKSRVTISVDTAKNSLYLQMNSLRAEDTAVYYCARELYNWNVDHWGQGTLVTVSSASTKGPSVFPLAPCSRSTSESTAALGCLVKDYFPEPVTVSWNSGALTSGVHTFPAVLQSSGLYSLSSVVTVPSSNFGTQTYTCNVDHKPSNTKVDKTVERKCEVECPECPAPPVAGPSVFLFPPKPKDTLMISRTPEVTCVVVAVSHEDPEVQFNWYVDGVEVHNAKTKPREEQFNSTFRVVSVLTVVHQDWLNGKEYKCKVSNKGLPSSIEKTISKTKGQPREPQVYTLPPSREEMTKNQVSLTCEVKGFYPSDIAVEWESNGQPENNYKTTPPMLDSDGSFFLYSKLTVDKSRWQQGNVFSCSVMHEALHNHYTQKSLSLSPG light 1: DIQMTQSPSSLSASVGDRVTITCRASQGIRNDLGWYQQKPGKAPKRLIYAASSLQSGVPSRFSGSGSGTDFTLTISSLQPEDFATYYCLQHSSYPRTFGGGTKVEIKRTVAAPSVFIFPPSDEQLKSGTASVVCLLNNFYPREAKVQWKVDNALQSGNSQESVTEQDSKDSTYSLSSTLTLSKADYEKHKVYACEVTHQGLSSPVTKSFNRGEC heavy 2: EVQLVESGGGLVQPGGSLRLSCAASGFTFSDYYMTWVRQAPGKGLEWVAFIRNQARGYTSDHNPSVKGRFTISRDNAKNSLYLQMNSLRAEDTAVYYCARDRPSYYVLDYWGQGTTVTVSSASTKGPSVFPLAPCSRSTSESTAALGCLVKDYFPEPVTVSWNSGALTSGVHTFPAVLQSSGLYSLSSVVTVPSSNFGTQTYTCNVDHKPSNTKVDKTVERKCRVRCPRCPAPPVAGPSVFLFPPKPKDTLMISRTPEVTCVVVAVSHEDPEVQFNWYVDGVEVHNAKTKPREEQFNSTFRVVSVLTVVHQDWLNGKEYKCKVSNKGLPSSIEKTISKTKGQPREPQVYTLPPSREEMTKNQVSLTCLVKGFYPSDIAVEWESNGQPENNYKTTPPMLDSDGSFFLYSRLTVDKSRWQQGNVFSCSVMHEALHNHYTQKSLSLSPGK light 2: DIQMTQSPSSLSASVGDRVTITCTSSQSLFNVRSQKNYLAWYQQKPGKAPKLLIYWASTRESGVPSRFSGSGSGTDFTLTISSLQPEDFATYYCKQSYDLFTFGGGTKVEIKRTVAAPSVFIFPPSDEQLKSGTASVVCLLNNFYPREAKVQWKVDNALQSGNSQESVTEQDSKDSTYSLSSTLTLSKADYEKHKVYACEVTHQGLSSPVTKSFNRGEC | 2650
